Laboratory results as given in US20250340623A1 (AC IMMUNE, published 2025).

How the values were obtained:
[1] = target: monomeric alpha-synuclein (UniProt P37840 1-140); assay: SPR, captured mAb
Procedure: (§1) Non-covalent immobilization of alpha-synuclein antibodies was performed using a target immobilization method of 2000 response units (RU). Antibodies were diluted in 10 mM sodium acetate pH 5.5 (GE Healthcare, BR-1003-52) to a final concentration of 5 μg/mL.
(§2) Binding affinity of alpha-synuclein antibodies to monomeric or fibrillar alpha-synuclein species was performed using a single-cycle kinetics method. The instrument was primed with 1×HBS-P+ buffer (10× stock from GE Healthcare, BR-1003-52 diluted in Milli-Q water). Injections of monomeric alpha-synuclein (aSyn) (Boston Biochem, SP-485), increasing in concentration from 0.62-50 nM prepared from serial 2-fold dilutions, were performed with contact times of 300 sec/injection at a flow rate of 30 μL/min. A dissociation phase of 900 sec followed the final 50 nM injection. Regeneration of the sensor to the goat anti-mouse antibody layer was achieved using 3 regenerations of 10 mM Glycine pH 1.7. […] Regeneration of the sensor to the goat anti-mouse antibody layer was achieved using 3 regenerations of 10 mM Glycine pH 1.7. Results obtained from single-cycle kinetics were evaluated by Biacore T200 evaluation software with 1:1 binding homogenous Langmuir model (with a global Rmax) with Cycle 5 as a blank subtraction. The following kinetic parameters were obtained: on-rate (ka), off-rate (kd), affinity constant (KD, ratio of kd by ka), maximum response (Rmax), and goodness of fit (Chi2).
(§3) Non-covalent capture of the alpha-synuclein antibodies was performed in three separate runs.

alpha-synuclein fibrils = alpha-synuclein fibrils (UniProt P37840 1-140); assay: SPR, captured mAb
Procedure: as §1, §2, §3

| Binder | Kd [1] [nM] | koff [1] [s⁻¹] | kon [1] [M⁻¹ s⁻¹] | Kd (alpha-synuclein fibrils) [nM] | koff (alpha-synuclein fibrils) [s⁻¹] | kon (alpha-synuclein fibrils) [M⁻¹ s⁻¹] |
| --- | --- | --- | --- | --- | --- | --- |
| ACI-7079-3103D9-Ab1 (antibody, V domains shown, mouse hybridoma mAb; VH/VL only; also called 3103D9C9) VH: QVSLKESGPGILQPSQTLSLTCSFSGFSLSTFGMGVGWIRQPSGKGLDWLTHIWWDDDKYYNPGLKSRLTISKDTSKNQVFLEIANVDTADTATYYCARIGDYYGTRGYFDVWGTGTTVTVSS VL: DIVMTQSPSSLTMSLGQTVTMSCKSSQSLLNSSNQKNHLAWYQQRPGQSPKLLVYFASTRESGVPERFIGGGSGTDFTLTISNVQSEDLTDYFCQQHYSTPYTFGGGTKLEIK | 0.73 | 0.000437 | 598000 | 9.2 | 0.000413 | 44800 |
| ACI-7079-3106C5-Ab1 (antibody, V domains shown, mouse hybridoma mAb; VH/VL only; also called 3106C5B7) VH: QVTLKESGPGILQPSQTLSLTCSFSGFSLSTFGMGVGWIRQPSGKGLEWLTHIWWDDDKYYNPALKSRLTISRDPSKNQVFLKIANVDTADTATYYCARIGDYYGSRGYFDVWGTGTTVTVSS VL: not shown | 4.1 | 0.00325 | 792000 | 9.49 | 0.000237 | 25000 |
| ACI-7079-3104F12-Ab2 (antibody, V domains shown, mouse hybridoma mAb; VH/VL only; also called 3104F12F2H7) VH: QVTLKESGPGIVQPSQTLSLTCSFSGFSLNTFGLGVGWIRQPSGKGLDWLTHIWWDDDKYYNPALKSRLTISKDTSKNQVFLKIANVDTADTATYYCARIGDFYGSRGYFDVWGTGTTVTVSS VL: not shown | 0.51 | 0.000452 | 892000 | 3.73 | 0.000268 | 71800 |
| ACI-7079-3107E6-Ab1 (antibody, V domains shown, mouse hybridoma mAb; VH/VL only; also called 3107E6A3) VH: QVTLKESGPGILQPSQTLSLTCSFSGFSLSTFGMGVGWIRQPSGKGLEWLTHIWWDDDKYYNPALKSRLTISKDASKNQMFLKIANVDTADTATYFCARIGDYYGSRGFFDVWGTGTTVTVSS VL: not shown | 1.12 | 0.000859 | 765000 | 2.66 | 0.000146 | 55100 |
| ACI-7079-3108C10-Ab2 (antibody, V domains shown, mouse hybridoma mAb; VH/VL only; also called 3108C10G6) VH: ELQLVESGGGLVRPGGSLKLSCATSGFTFRNYAMSWVRQTPAKRLEWVATISDGGTYTFYSDNVKGRFTISRDNVKNTLYLQMSHLKSEDTAMYYCSRAGSGHWGQGTTLTVSS VL: not shown |  |  |  | 6.77 | 6.66e-05 | 9840 |
| ACI-7079-2601B6-Ab1 (antibody, V domains shown, mouse hybridoma mAb; VH/VL only; also called 2601B6D2; ACI-7079-26016NAbM) VH: EIQLQQSGAELVRPGASVKLSCTTSGFNIKDDYIHWVKQRPEQGLEWIGWIDPENGDTDYASKFQGKATITADTSSNTAYLHLSSLTSEDAAVYFCTTRGFGYWGQGTLVTVS VL: DIVMTQSHKFMSTSVGDRVSITCKASQDVGNVVAWYQQKPGQSPKLLIYWASSRHTGVPDRFTGSGSGTEFTLTISNVQSEDLADYFCQQYSSYPLTFGAGTKLELK | 82.1 | 0.0238 | 290000 | 22 | 0.000382 | 17400 |

Further lines, results first:

| Kd [1] [nM] | koff [1] [s⁻¹] | kon [1] [M⁻¹ s⁻¹] | Kd (alpha-synuclein fibrils) [nM] | koff (alpha-synuclein fibrils) [s⁻¹] | kon (alpha-synuclein fibrils) [M⁻¹ s⁻¹] | Binder |
| --- | --- | --- | --- | --- | --- | --- |
| 620 | 0.0353 | 56900 | 35.8 | 0.000385 | 10800 | ACI-7088-4301D5-Ab2 (antibody, V domains shown, mouse hybridoma mAb; VH/VL only; also called 4301D5B10) VH: QVQLQQSGPELVRPGASVKISCKASGYRFTSYYIHWVKQRPGQGLEWIGWIYPGSDNTKHNDKFKGKATLTADTSSSTAYMQLSSLTSEDSAVYFCARDYDVGFGYWGQGTLVTVSS VL: not shown |
| 442 | 0.0261 | 59100 | 50.7 | 0.000567 | 11200 | ACI-7087-4125E6-Ab1 (antibody, V domains shown, mouse hybridoma mAb; VH/VL only; also called 4125E6D5) VH: QVQLQQPGTELVKPGASVRLSCKASGYAFTSYWMHWVKQRPGQGLEWIGNINPSNGGTNYNEKFKNKATLTVDKSSSTAYMQLSGLTSEDSAVYYCATGLHYWGQGTTLTVSS VL: DIQMTQSPSSLSASLGERVTLTCRASQDIGNYLNWLQQEPDGTIKRLIYATSSLDSGVPKRFSGSRSGSDYSLTISSLESEDFVDYYCLQFASSPLTFGPGTKLELK |
|  |  |  | 1.8 | 3.27e-05 | 18000 | ACI-8033-22E5-Ab1 (antibody, V domains shown, mouse hybridoma mAb; VH/VL only; also called 917.22E5C5F7) VH: EVQLVESGGDLVKPGGSLKLSCAASGFTFSSYGMSWVRQTPDKRLEWVATISNGGSYTYYPDSVKGRFTISRDNAKNTLYLQMSSLKSEDTAMYYCARQLRRDGWYFDVWGTGTTVTVSS VL: EIVLTQSPALMAASPGEKVTITCSVSSSISSSKLHWYQQKSETSPKLWIYGTSNLASGVPVRFSGSGSGTSYSLTISSMEAEDAATYYCQQWSSYPLTFGAGTKLELK |
